For 132 substances, Binding affinity results are on record in patent publication US20250011363A1, “OPTIMIZED SHORTENED PEPTIDE THAT BINDS TO ACETYLCHOLINE RECEPTOR, AND USE THEREOF” (SKINMED CO., LTD., priority 2021, published 2025).

The test has as its target acetylcholine receptor (Homo sapiens, UniProt P02708). Description: SPR binding affinity (RU) of optimized 5mer/6mer/7mer peptides, Examples 6-7. Particulars: SPR, peptides tested at 10 μM. In a few lines: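 Peptides were tested at 10 μM by surface plasmon resonance against the receptor, with binding reported as response units. Library sequences were built from frequent (top) or infrequent (bottom) amino acid combinations in 5mer, 6mer-1 and 6mer-2 series.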
(Surface plasmon resonance follows binding to a sensor surface in real time, without labels.)

Setting [1] is: 6mer-1 Bottom sequence (Table 11).
Setting [2] is: Resonance Units, 6mer-1 Bottom sequence.

Chain of acetylcholine receptor (P02708 21-457): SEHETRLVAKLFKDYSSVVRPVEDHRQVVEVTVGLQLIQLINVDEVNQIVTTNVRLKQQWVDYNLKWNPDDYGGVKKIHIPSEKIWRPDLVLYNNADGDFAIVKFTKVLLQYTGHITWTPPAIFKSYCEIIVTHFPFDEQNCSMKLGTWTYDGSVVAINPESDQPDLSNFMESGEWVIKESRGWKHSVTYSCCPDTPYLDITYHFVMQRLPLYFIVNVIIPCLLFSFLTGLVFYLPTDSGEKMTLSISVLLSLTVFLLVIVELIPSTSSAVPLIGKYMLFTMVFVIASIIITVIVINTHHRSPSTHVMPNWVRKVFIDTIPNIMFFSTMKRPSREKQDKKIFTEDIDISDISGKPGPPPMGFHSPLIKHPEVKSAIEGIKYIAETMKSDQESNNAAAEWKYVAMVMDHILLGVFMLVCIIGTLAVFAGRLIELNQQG

For 6mer-1-914 (RRKCVR), under setting [1], the Binding affinity is 39 Ru.

In the case of 6mer-1-915 (RKDTWK), the Binding affinity under setting [1] worked out at 27 Ru.

As to 6mer-1-916 (RRNAAK), under setting [1], the Binding affinity stood at 33 Ru.

As for 6mer-1-917 (KRADDK), under setting [1], the Binding affinity was 27 Ru.

Take 6mer-1-918 (RRESMR): the Binding affinity under setting [1] is on record as 33 Ru.

On to 6mer-1-919 (RKDHIK), for which, under setting [1], the Binding affinity turned out to be 26 Ru.

As for 6mer-1-920 (RRPAMR), the Binding affinity under setting [1] came out at 40 Ru.

In the case of 6mer-1-921 (RKFWHR), the Binding affinity under setting [1] was 36 Ru.

Consider 6mer-1-922 (RRDWGR), for which the Binding affinity under setting [1] came out at 34 Ru.

With 6mer-1-923 (RRASDR), the Binding affinity under setting [1] came out at 43 Ru.

Regarding 6mer-1-924 (RKFNWR), under setting [1], the Binding affinity is on record as 29 Ru.

For 6mer-1-925 (KKAMHR), the Binding affinity under setting [1] came out at 42 Ru.

Turning to 6mer-1-926 (KRESDR), under setting [1], the Binding affinity came to 40 Ru.

On to 6mer-1-927 (KRESHR), for which, under setting [1], the Binding affinity turned out to be 37 Ru.

As to 6mer-1-928 (KRYCPK), the Binding affinity under setting [1] is 30 Ru.

For the substance 6mer-1-929 (RRCDHK), under setting [1], the Binding affinity worked out at 25 Ru.

In the case of 6mer-1-930 (KKESNK), the Binding affinity under setting [1] was 43 Ru.

As to 6mer-1-931 (KKNWPR), the Binding affinity under setting [1] turned out to be 35 Ru.

On to 6mer-1-932 (KRFEFK), for which the Binding affinity under setting [1] is on record as 38 Ru.

Take 6mer-1-933 (RRPWNR): under setting [1], the Binding affinity was 28 Ru.

As for 6mer-1-934 (KRPPGK), under setting [1], the Binding affinity was determined as 39 Ru.

Regarding 6mer-1-935 (RKKDIK), the Binding affinity under setting [1] is recorded as 40 Ru.

Turning to 6mer-1-936 (RKETDR), under setting [1], the Binding affinity worked out at 36 Ru.

On to 6mer-1-937 (RKPTNR), for which the Binding affinity under setting [1] is listed as 34 Ru.

As to 6mer-1-938 (KKIAWK), the Binding affinity under setting [1] amounted to 28 Ru.

As to 6mer-1-939 (KRNDFK), under setting [1], the Binding affinity was 41 Ru.

As for 6mer-1-940 (RKPEDR), under setting [1], the Binding affinity is reported as 29 Ru.

For 6mer-1-941 (RKTPKK), under setting [1], the Binding affinity came to 29 Ru.

For the substance 6mer-1-942 (RRMMVR), the Binding affinity under setting [1] is 37 Ru.

For the substance 6mer-1-943 (KKEHDK), under setting [1], the Binding affinity worked out at 43 Ru.

In the case of 6mer-1-944 (RKPAGK), the Binding affinity under setting [1] was found to be 25 Ru.

In the case of 6mer-1-945 (RKTSIK), under setting [1], the Binding affinity is given as 31 Ru.

6mer-1-946 (RRCEPR): the Binding affinity under setting [1] came out at 31 Ru.

For 6mer-1-947 (KRTKGR), under setting [1], the Binding affinity is 31 Ru.

As for 6mer-1-948 (RKFTVR), under setting [1], the Binding affinity is reported as 24 Ru.

Regarding 6mer-1-949 (RKEMPR), under setting [1], the Binding affinity stood at 37 Ru.

6mer-1-950 (RKEDKR): the Binding affinity under setting [1] amounted to 29 Ru.

As for 6mer-1-951 (RKAMDK), the Binding affinity under setting [1] is on record as 29 Ru.

For the substance 6mer-1-952 (KRHDKK), under setting [1], the Binding affinity turned out to be 28 Ru.

As for 6mer-1-953 (KRTNGK), under setting [1], the Binding affinity is given as 26 Ru.

Consider 6mer-1-954 (KKAKGR), for which the Binding affinity under setting [1] was 41 Ru.

With 6mer-1-955 (RKECFK), the Binding affinity under setting [1] was 23 Ru.

Turning to 6mer-1-956 (KRKSNK), the Binding affinity under setting [1] came out at 34 Ru.

For 6mer-1-957 (KKPPDK), under setting [1], the Binding affinity is reported as 43 Ru.

For 6mer-1-958 (KRYAGR), the Binding affinity under setting [1] came to 43 Ru.

For the substance 6mer-1-959 (KKIWFR), under setting [1], the Binding affinity is given as 36 Ru.

As for 6mer-1-960 (KKCPFR), the Binding affinity under setting [1] is 34 Ru.

On to 6mer-1-961 (RRTWAR), for which the Binding affinity under setting [1] turned out to be 122 Ru.

As for 6mer-1-962 (KKNCDK), the Binding affinity under setting [1] is 42 Ru.

In the case of 6mer-1-963 (RREEDK), the Binding affinity under setting [1] worked out at 29 Ru.

For 6mer-1-964 (RKFKNK), the Binding affinity under setting [1] stood at 42 Ru.

With 6mer-1-965 (KRIWDK), the Binding affinity under setting [1] came to 36 Ru.

With 6mer-1-966 (RRNSWK), under setting [1], the Binding affinity is recorded as 22 Ru.

In the case of 6mer-1-967 (RRTEDR), the Binding affinity under setting [1] was found to be 24 Ru.

With 6mer-1-968 (RREDFR), the Binding affinity under setting [1] worked out at 39 Ru.

Turning to 6mer-1-969 (RKDHWR), under setting [1], the Binding affinity was 33 Ru.

As to 6mer-1-970 (RRCCAR), the Binding affinity under setting [1] was 38 Ru.

With 6mer-1-971 (RKIEMK), under setting [1], the Binding affinity was 32 Ru.

For the substance 6mer-1-972 (RRHTHK), the Binding affinity under setting [1] was determined as 43 Ru.

For the substance 6mer-1-973 (RRDHVK), under setting [1], the Binding affinity turned out to be 25 Ru.

Turning to 6mer-1-974 (RKPAHK), under setting [1], the Binding affinity is 27 Ru.

Turning to 6mer-1-975 (RKASIK), the Binding affinity under setting [1] was 22 Ru.

Regarding 6mer-1-976 (RKEMIK), under setting [1], the Binding affinity worked out at 40 Ru.

Consider 6mer-1-977 (RRPCFR), for which the Binding affinity under setting [1] turned out to be 43 Ru.

Turning to 6mer-1-978 (RRKSHK), the Binding affinity under setting [1] was 43 Ru.

On to 6mer-1-979 (RRYWEK), for which the Binding affinity under setting [1] turned out to be 42 Ru.

With 6mer-1-980 (RKICAK), the Binding affinity under setting [1] worked out at 33 Ru.

For 6mer-1-981 (RKDDKK), the Binding affinity under setting [1] stood at 27 Ru.

Take 6mer-1-982 (KRCPDR): under setting [1], the Binding affinity was 35 Ru.

In the case of 6mer-1-983 (KRPHKK), the Binding affinity under setting [1] is 38 Ru.

6mer-1-984 (KKESDK): the Binding affinity under setting [1] is 33 Ru.

With 6mer-1-985 (KRKSER), the Binding affinity under setting [1] was found to be 22 Ru.

On to 6mer-1-986 (KKAEEK), for which the Binding affinity under setting [1] was determined as 22 Ru.

Consider 6mer-1-987 (RRTEFK), for which the Binding affinity under setting [1] turned out to be 34 Ru.

As for 6mer-1-988 (KRYPDR), under setting [1], the Binding affinity came to 24 Ru.

For 6mer-1-989 (KRATVR), the Binding affinity under setting [1] is 27 Ru.

As to 6mer-1-990 (RRFTER), the Binding affinity under setting [1] amounted to 40 Ru.

As to 6mer-1-991 (RKAHDK), the Binding affinity under setting [1] is 25 Ru.

6mer-1-992 (RRCTAK): under setting [1], the Binding affinity was 28 Ru.

In the case of 6mer-1-993 (KRAHDK), the Binding affinity under setting [1] worked out at 26 Ru.

Take 6mer-1-994 (KKHEFR): under setting [1], the Binding affinity was found to be 37 Ru.

On to 6mer-1-995 (KRCHHR), for which the Binding affinity under setting [1] came out at 33 Ru.

For the substance 6mer-1-996 (RRPPWK), the Binding affinity under setting [1] stood at 39 Ru.

Turning to 6mer-1-997 (KKPTFR), the Binding affinity under setting [1] came to 35 Ru.

As for 6mer-1-998 (KRNPVK), the Binding affinity under setting [2] stood at 41 Ru.

In the case of 6mer-1-999 (RKATNR), the Binding affinity under setting [2] is reported as 24 Ru.

On to 6mer-1-1000 (RKMSHR), for which, under setting [2], the Binding affinity is 28 Ru.

In the case of 6mer-1-1002 (KRIHMK), under setting [2], the Binding affinity is 29 Ru.

As to 6mer-1-1003 (RKYCHR), under setting [2], the Binding affinity worked out at 24 Ru.

Consider 6mer-1-1004 (RKHSHR), for which, under setting [2], the Binding affinity amounted to 41 Ru.

With 6mer-1-1005 (RKPPDR), the Binding affinity under setting [2] is listed as 26 Ru.

Turning to 6mer-1-1006 (KKDKIK), the Binding affinity under setting [2] was 25 Ru.

On to 6mer-1-1007 (RKPTDR), for which the Binding affinity under setting [2] stood at 39 Ru.

With 6mer-1-1008 (RKPWAR), the Binding affinity under setting [2] is given as 21 Ru.

For 6mer-1-1009 (RKMSKK), under setting [2], the Binding affinity is 29 Ru.

6mer-1-1010 (KKPKHK): under setting [2], the Binding affinity is listed as 33 Ru.

For 6mer-1-1011 (RKKPEK), under setting [2], the Binding affinity turned out to be 35 Ru.

For the substance 6mer-1-1012 (RRAWVR), under setting [2], the Binding affinity was 35 Ru.

For 6mer-1-1013 (KKTTNK), the Binding affinity under setting [2] turned out to be 29 Ru.

For the substance 6mer-1-1014 (KKNAWR), the Binding affinity under setting [2] is listed as 25 Ru.

Take 6mer-1-1015 (KREEWR): the Binding affinity under setting [2] was determined as 26 Ru.

As to 6mer-1-1016 (KRHTHR), under setting [2], the Binding affinity came out at 21 Ru.

For 6mer-1-1017 (KRANMK), under setting [2], the Binding affinity came to 37 Ru.

With 6mer-1-1018 (KKTAFK), under setting [2], the Binding affinity amounted to 28 Ru.

Take 6mer-1-1019 (KRDAWR): the Binding affinity under setting [2] was determined as 37 Ru.

Regarding 6mer-1-1020 (KKMEAK), under setting [2], the Binding affinity was found to be 38 Ru.

With 6mer-1-1021 (KKHDIK), the Binding affinity under setting [2] is 41 Ru.

Turning to 6mer-1-1022 (RKDTVR), the Binding affinity under setting [2] was determined as 22 Ru.

6mer-1-1023 (KRIMHK): under setting [2], the Binding affinity is reported as 39 Ru.

As for 6mer-1-1024 (RKTEIR), the Binding affinity under setting [2] was found to be 36 Ru.

Take 6mer-1-1025 (KRFAKR): under setting [2], the Binding affinity is 33 Ru.

Turning to 6mer-1-1026 (RKKCER), the Binding affinity under setting [2] is 30 Ru.

On to 6mer-1-1027 (KKPWHK), for which the Binding affinity under setting [2] amounted to 22 Ru.

In the case of 6mer-1-1028 (RRHCWR), the Binding affinity under setting [2] was 36 Ru.

In the case of 6mer-1-1029 (RRCMAK), the Binding affinity under setting [2] was 40 Ru.

Regarding 6mer-1-1030 (KKFCFR), the Binding affinity under setting [2] worked out at 30 Ru.

Consider 6mer-1-1031 (RKDTHK), for which the Binding affinity under setting [2] is 38 Ru.

For the substance 6mer-1-1032 (KKTSMR), the Binding affinity under setting [2] amounted to 27 Ru.

On to 6mer-1-1033 (KRHMVK), for which, under setting [2], the Binding affinity came to 30 Ru.

On to 6mer-1-1034 (KKASDR), for which the Binding affinity under setting [2] is 24 Ru.

For 6mer-1-1035 (RRCHHR), the Binding affinity under setting [2] was found to be 34 Ru.

Turning to 6mer-1-1036 (KKITFR), the Binding affinity under setting [2] was 21 Ru.

For the substance 6mer-1-1037 (RRKNNR), under setting [2], the Binding affinity was found to be 36 Ru.

In the case of 6mer-1-1038 (RRKKIR), the Binding affinity under setting [2] is 21 Ru.

For the substance 6mer-1-1039 (KRADIK), the Binding affinity under setting [2] was 40 Ru.

Regarding 6mer-1-1040 (KRIEFR), under setting [2], the Binding affinity amounted to 28 Ru.

Take 6mer-1-1041 (RKEHGK): the Binding affinity under setting [2] was 23 Ru.

As to 6mer-1-1042 (KKITAR), under setting [2], the Binding affinity turned out to be 40 Ru.

Turning to 6mer-1-1043 (KRAAHR), the Binding affinity under setting [2] worked out at 30 Ru.

6mer-1-1044 (KKHHIR): under setting [2], the Binding affinity amounted to 24 Ru.

As for 6mer-1-1045 (KKTPGR), the Binding affinity under setting [2] was 27 Ru.

Consider 6mer-1-1046 (RKDPHR), for which, under setting [2], the Binding affinity amounted to 38 Ru.
